± gives the standard deviation.
Test: protein stability index of a GFP-peptide fusion (GPS, HEK-293T) (PSI 1-6); higher = more stable
[1] = treatment: DMSO, c terminus: a fixed tail appended
[2] = treatment: MLN4924 1 uM, 8 h, c terminus: a fixed tail appended
[3] = treatment: DMSO, c terminus: native
[4] = treatment: MLN4924 1 uM, 8 h, c terminus: native
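Note: 24-mer peptide tiles fused after GFP, lentivirally expressed, FACS-sorted into six equal bins by GFP/DsRed ratio, decoded by Illumina sequencing, PSI is the read-weighted mean bin number.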

Row | Sequence | protein stability index [1] | protein stability index [2] | protein stability index [3] | protein stability index [4]
1 | LTPGQSDSAKREVKQKISPYFKSN [FAN1] | 3.92 ± 0.19 | 3.97 ± 0.26 |  | 
2 | FSVKFEVQAPRWGNPRALSFVLSS [OAS1] | 2.94 ± 0.27 | 3.01 ± 0.49 |  | 
3 | QEFAARAAKQLEYQQLEDDKLSQK [EPB41L3] | 5.17 ± 0.81 |  |  | 
4 | HLEVKFMNPYNAVLTKKFQVTMRG [FBXO39] | 2.17 ± 0.22 | 2.28 ± 0.22 |  | 
5 | KEMARKVIEHCSNFKEENMDTSR [ZER1] |  |  | 3.77 ± 0.32 | 4.16 ± 0.61
6 | RPATEAELLTCHSAEYVGHLRATE [HDAC6] | 4.1 ± 0.2 | 3.85 ± 0.19 |  | 
7 | RTITFEQFQEALEELAKKRFKDKS [TPPP] | 2.54 ± 0.11 | 2.74 ± 0.43 |  | 
8 | HTEERPFKCNYCGKSFRQRPSLVI [ZNF449] | 2.37 ± 0.15 | 2.44 ± 0.28 |  | 
9 | GTEQAPYGMQTQNYPKGGLLDSMC [ETS2] | 3.59 ± 0.17 | 3.84 ± 0.4 |  | 
10 | PLRPLLGFRESDSAKPASLRLLQH [C6orf223] | 3.41 ± 0.39 | 3.6 ± 0.27 |  | 
11 | LTRQLVSCSSDGGIAVWNMDVSRE [WDFY1] | 2.96 ± 0.32 | 3.08 ± 0.2 |  | 
12 | WHTIAPMGTRRKHLGCAVYQDMIY [KLHL20] |  | 1.93 ± 0.96 |  | 
13 | LGETKAYVFFEKDFGDMHSYVRSR [TRIB1] | 2.62 ± 0.42 | 2.37 ± 0.11 |  | 
14 | AANPRPDALMKEQLVEMTGLSPRV [ISL2] | 4.17 ± 0.27 | 4.19 ± 0.33 |  | 
15 | PGPGSGPGSGPGHGSGSHPGPASG [SPAG8] | 5.08 ± 0.3 | 4.97 ± 0.26 |  | 
16 | LPGSYLSSECHTSGFVGSGGWFCE [KRT36] | 2.15 ± 0.39 | 2.24 ± 0.26 |  | 
17 | EGRGPVTPLHLDLTQLHRLSLESS [PLEKHN1] | 3.4 ± 0.31 | 3.28 ± 0.22 |  | 
18 | HVYIGSAGLDWQSLGQMKELGVIF [PLD5] | 2.49 ± 0.71 | 2.58 ± 1.1 |  | 
19 | VGGGSGDEASAATPPSSRRVWSPP [ZBTB22] | 4.66 ± 0.2 | 4.76 ± 0.34 |  | 
20 | QGKADGLYPNPRERSSFYSCAGGR [CHIT1] | 3.64 ± 0.097 | 3.87 ± 0.31 |  | 
21 | EAVKYYTLEEIQKHNHSKSTWLIL [CYB5A] | 2.44 ± 0.65 | 2.3 ± 0.24 |  | 
22 | RSQKHKERIRLLRQKREAAARKKY [C18orf25] | 4.17 ± 0.34 | 4.36 ± 0.31 |  | 

Row | Sequence | protein stability index [1] | protein stability index [2] | protein stability index [3] | protein stability index [4]
23 | TEVPFSITTDNLQCRERREHPNLV [TEKT4] | 4.17 ± 0.15 | 4.1 ± 0.15 |  | 
24 | EIEQLLARLTGVNDKMAEYTNSAG [GOSR1] | 2.29 ± 0.24 | 2.46 ± 0.45 |  | 
25 | GGGGAPRGRYGPPSRRSENRVVVS [SRSF1] | 4.36 ± 0.16 | 4.29 ± 0.12 |  | 
26 | PGSQTAVKNSNRYDVEMTDELVGL [FBXO34] | 4.98 ± 0.12 | 4.93 ± 0.27 |  | 
27 | QLGQRIYQYIQSRFYRSPEVLLGT [DYRK1B] | 2.23 ± 0.16 | 2.53 ± 0.44 |  | 
28 | KDGNTPLHVAARYGHELLINTLIT [ANKRD44] | 2.19 ± 0.15 | 2.3 ± 0.46 |  | 
29 | ALKYWKKAMNMRYSDRTNIISKPV [FEM1C] | 2.5 ± 0.52 | 2.28 ± 0.31 |  | 
30 | TAHASAQSLAGGSRRTKEEELQC [TPD52L1] |  |  | 4.99 ± 0.1 | 4.88 ± 0.17
31 | RLNKLRLESEGSPETLTNLRKGYL [HACD3] | 3.25 ± 0.23 | 3.35 ± 0.33 |  | 
32 | PAVRQLLPCARVQICRAQGLETLF [ZSWIM9] | 2.19 ± 0.49 | 2.5 ± 0.64 |  | 
33 | QQKWTKPARAGSEVEWTEDLALDL [C2CD2L] | 4.37 ± 0.27 | 4.48 ± 0.28 |  | 
34 | DGLREALANLRGLSEEERSEKAML [CCDC89] | 4.93 ± 0.22 | 4.51 ± 0.44 |  | 
35 | KGKAGRVDLVDESGYVSGYKHAGT [TPPP] | 4.32 ± 0.12 | 4.57 ± 0.18 |  | 
36 | SDSESKPDQEAEPQEAAGAQGRAG [EPB41L3] | 5.54 ± 0.37 | 5.63 ± 0.22 |  | 
37 | AERLEVSVDGLTLSPDPEERPGAE [ACBD3] | 5.29 ± 0.45 | 5.56 ± 0.3 |  | 
38 | EDRVKLFGIEIEVTDINDNAPKFQ [PCDHGA10] | 3.35 ± 0.43 | 3.52 ± 0.46 |  | 
39 | AFFKRTIQGNIEYSCPATNECEIT [ESRRG] | 3.11 ± 0.25 | 3.23 ± 0.27 |  | 
40 | KSPTGLKLKNDTENHQPVSLSDLE [ZNF75A] | 5.3 ± 0.23 | 5.188 ± 0.043 |  | 
41 | MAAPPKAPIRVRNLTIRAGALTGK [DMRTC1] | 3.57 ± 0.33 | 3.73 ± 0.22 |  | 
42 | VRVRQDSGAEGHSHSCYHDTRSGF [TRIM35] | 3.51 ± 0.25 | 3.62 ± 0.31 |  | 
43 | STKGSRSNLSTRDASILTEMPTQP [NETO1] | 4.52 ± 0.27 | 4.71 ± 0.24 |  | 
44 | WYWHGDVNSNKVVMSGVKCSGTEL [LOXL2] | 2.68 ± 0.53 | 2.75 ± 0.28 |  | 

Row | Sequence | protein stability index [1] | protein stability index [2] | protein stability index [3] | protein stability index [4]
45 | GHGADVLCLDLAPSETGNTFVSGG [GNB5] | 4.24 ± 0.084 | 4.33 ± 0.4 |  | 
46 | LAAAVVQEHSNSVGGQDTGATWRT [C18orf25] | 4.22 ± 0.23 | 4.18 ± 0.21 |  | 
47 | AHELGHSLGLSHSTDIGALMYPSY [MMP1] | 3.14 ± 0.18 | 2.9 ± 0.14 |  | 
48 | RHQKIHSGEKPYKCSDCGKAFLTK [ZNF649] | 3.07 ± 0.069 | 3.25 ± 0.31 |  | 
49 | NGMAIIRPPGHHAQHSLMDGYCMF [HDAC6] | 2.37 ± 0.17 | 2.21 ± 0.31 |  | 
50 | DAEVSCTDNGTFNLSRGQTPLTEG [RETREG3] | 5.2 ± 0.25 | 5.32 ± 0.1 |  | 
51 | GKDVATQILEGELFDFDLEVKPVL [RSPH3] | 3.79 ± 0.087 | 3.81 ± 0.46 |  | 
52 | ELSSLGSDSEANGFAERRIDKFGF [TBC1D10A] | 3.82 ± 0.2 | 3.83 ± 0.15 |  | 
53 | ILREELQKQRLREILEQQQQERND [ZNF277] | 4.4 ± 0.51 | 4.32 ± 0.33 |  | 
54 | VLITVEDVNDNSPELTITSLFSPV [PCDHGA10] | 2.3 ± 0.49 | 2.07 ± 0.19 |  | 
55 | TSCAGNLPSRPPPLLSPLLASRNP [RSPH3] | 3.45 ± 0.22 | 3.61 ± 0.32 |  | 
56 | DRADYYLEEFKENAYKDLAWKHGN [PCMTD2] | 3.75 ± 0.084 | 3.07 ± 0.77 |  | 
57 | EAVSDSTPFLTNHGAHKAEKKLFE [ZNF263] | 4.65 ± 0.5 | 4.42 ± 0.41 |  | 
58 | LDSEKPKKLRFHPKQLYFSARQGE [EHMT1] | 3.2 ± 0.038 | 3.4 ± 0.21 |  | 
59 | VNPAYPESRYTSDYFISYGIEHAQ [ETS1] | 2.8 ± 0.51 | 2.8 ± 0.4 |  | 
60 | LENVFSSLTDDKYDVAMNRAKDLV [GOLPH3L] | 3.89 ± 0.32 | 3.92 ± 0.19 |  | 
61 | TAAVLGLICEGLYPASIVDEPTFK [ZBED1] | 2.17 ± 0.26 | 2.19 ± 0.6 |  | 
62 | LQVIYWARDVFIITGVWVFFFNPC [GOSR1] | 2.37 ± 0.7 | 2.57 ± 0.15 |  | 
63 | IFAGVHDEKAKPRDRQQAPGLGQE [TLE6] | 4.73 ± 0.2 | 4.81 ± 0.065 |  | 
64 | RSRREQFSRAPVSALPLAPNHLGG [STX5] | 3.46 ± 0.15 | 3.77 ± 0.31 |  | 
65 | PSNFLEIDVSNPQTVGVGRGRFTT [SNX3] | 3.84 ± 0.29 | 3.8 ± 0.59 |  | 
